Each block holds one binder with its values, some of them ahead of it.
Legend:
[1] = molecular target: T1, FcγRIIa type R (human, UniProt P12318 36-217); test: ratio of SPR KDs; stronger receptor here FcγRIIaR; reference IL6R-B3/IL6R-L (FcγRIIaH)
T1 construct: SPR analyte; also called FcγRIIaR; FcγRIIa(R)
T1 chain: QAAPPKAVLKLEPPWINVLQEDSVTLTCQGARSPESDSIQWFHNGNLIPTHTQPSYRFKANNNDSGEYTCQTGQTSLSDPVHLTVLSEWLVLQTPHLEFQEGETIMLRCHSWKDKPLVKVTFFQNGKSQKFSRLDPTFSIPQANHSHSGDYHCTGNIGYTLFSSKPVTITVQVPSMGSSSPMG
Description: (§1) Furthermore, KD(IIaR)/KD(IIb) and KD(IIaH)/KD(IIb) in the table respectively represent the value obtained by dividing the KD value of each variant for FcγRIIaR by the KD value of each variant for FcγRIIb, and the value obtained by dividing the KD value of each variant for FcγRIIaH by the KD value of each variant for FcγRIIb. KD(IIb) of the parent polypeptide/KD(IIb) of the altered polypeptide refers to the value obtained by dividing the KD value of the parent polypeptide for FcγRIIb by the KD value of each variant for FcγRIIb.

[2] = molecular target: T2, FcγRIIa type H (human, UniProt P12318 36-217); test: SPR (Biacore), antibody captured, FcγR analyte
T2 construct: SPR analyte; also called FcγRIIaH
T2 sequence: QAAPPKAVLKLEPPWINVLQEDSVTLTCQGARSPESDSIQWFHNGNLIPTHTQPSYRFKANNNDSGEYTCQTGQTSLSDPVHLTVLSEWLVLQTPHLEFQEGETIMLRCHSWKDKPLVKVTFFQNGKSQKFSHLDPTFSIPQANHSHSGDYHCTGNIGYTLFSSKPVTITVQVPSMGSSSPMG
Description: as §1

[3] = molecular target: T1, FcγRIIa type R; test: SPR (Biacore), antibody captured, FcγR analyte
Description: as §1

[4] = molecular target: T3, FcγRIIIa type V (human, UniProt P08637 17-208, limits assumed); test: SPR (Biacore), antibody captured, FcγR analyte
T3 construct: SPR analyte; allotype V158 was used here; also called FcγRIIIaV; FcγRIIIa(V)
T3 sequence (P08637 other isoform, or with tags, fused parts or gaps limits assumed): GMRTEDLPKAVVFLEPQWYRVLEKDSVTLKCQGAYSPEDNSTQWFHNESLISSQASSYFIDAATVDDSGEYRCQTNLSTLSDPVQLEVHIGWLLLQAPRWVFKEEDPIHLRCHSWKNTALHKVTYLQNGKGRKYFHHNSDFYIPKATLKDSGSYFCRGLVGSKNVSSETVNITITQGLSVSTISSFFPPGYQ
Description: as §1

[5] = molecular target: T4, FcγRIIb (human, UniProt P31994 43-217, limits assumed); test: SPR (Biacore), antibody captured, FcγR analyte
T4 construct: SPR analyte; also called FcγIIB; CD32
T4 sequence: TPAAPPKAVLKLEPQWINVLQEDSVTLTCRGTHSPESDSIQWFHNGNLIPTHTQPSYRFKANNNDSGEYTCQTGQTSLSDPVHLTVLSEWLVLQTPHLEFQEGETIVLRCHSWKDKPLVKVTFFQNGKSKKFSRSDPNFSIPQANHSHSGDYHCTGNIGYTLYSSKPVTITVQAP
Description: as §1

[6] = molecular target: T4, FcγRIIb; test: ratio of SPR KDs; reference IL6R-B3/IL6R-L
Description: as §1

[7] = molecular target: T4, FcγRIIb; test: ratio of SPR KDs: KD for FcγRIIaH over KD for FcγRIIb
Description: (§2) Furthermore, KD(IIaR)/KD(IIb) and KD(IIaH)/KD(IIb) in the table respectively represent the value obtained by dividing the KD value of each variant for FcγRIIaR by the KD value of each variant for FcγRIIb, and the value obtained by dividing the KD value of each variant for FcγRIIaH by the KD value of each variant for FcγRIIb.

[8] = molecular target: T4, FcγRIIb; test: ratio of SPR KDs: KD for FcγRIIaR over KD for FcγRIIb
Description: as §2

[9] = molecular target: T5, human FcγRIa (human, UniProt P12314 16-292, limits assumed); test: SPR, antibody captured by Protein L, human FcγR as analyte, pH 7.4, 25 C;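 further: biacore T100 or T200 with Protein L amine-coupled on a CM4 chip, FcγRs diluted in ACES saline with polysorbate 20, buffer-only injection as blank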
T5 construct: also called hFcgRIa; hFcgRI
Protocol: (§3) Binding activity between the antibodies and human FcγRIa, FcγRIIa(H), FcγRIIa(R), FcγRIIb and FcγRIIIa(F) (hereinafter referred to as human FcγRs) was evaluated using the BIACORE™ T100 or T200 surface plasmon resonance system (GE Healthcare). The antibodies being tested were captured by Protein L (ACTIGEN® protein (Alltech)) that was immobilized in suitable amounts on the CM4 Sensor Chip (GE Healthcare) by amine coupling. Next, the diluted human FcγRs and a running buffer used as a blank were injected to allow interaction with the antibodies captured on the sensor chip. A buffer consisting of 20 mmol/L N-(2-acetamido)-2-aminoethanesulfonic acid (ACES), 150 mmol/L NaCl and 0.05% (w/v) polysorbate 20 (Tween 20®) (pH 7.4) was used for the running buffer, and this buffer was also used to dilute the human FcγRs. 10 mmol/L glycine-HCl (pH 1.5) was used to regenerate the sensor chip. All measurements were carried out at 25° C.

[10] = molecular target: T6, human FcγRIIIa(V) (human, UniProt P08637 17-208, limits assumed); test: as above
T6 construct: also called hFcgRIIIa(V); allotype V158
Protocol: as §3

[11] = molecular target: T7, human FcγRIIa(H) (human, UniProt P12318 36-217); test: as above
T7 construct: also called hFcgRIIa(H); FcγRIIa type H
T7 sequence: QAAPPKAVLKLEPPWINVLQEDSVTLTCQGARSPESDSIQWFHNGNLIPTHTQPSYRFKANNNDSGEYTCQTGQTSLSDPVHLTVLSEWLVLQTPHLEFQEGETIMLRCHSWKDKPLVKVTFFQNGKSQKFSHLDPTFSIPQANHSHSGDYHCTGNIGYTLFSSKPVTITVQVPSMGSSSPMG
Protocol: as §3

[12] = molecular target: T8, human FcγRIIa(R) (human, UniProt P12318 36-217); test: as above
T8 construct: also called hFcgRIIa(R); FcγRIIa type R
T8 chain: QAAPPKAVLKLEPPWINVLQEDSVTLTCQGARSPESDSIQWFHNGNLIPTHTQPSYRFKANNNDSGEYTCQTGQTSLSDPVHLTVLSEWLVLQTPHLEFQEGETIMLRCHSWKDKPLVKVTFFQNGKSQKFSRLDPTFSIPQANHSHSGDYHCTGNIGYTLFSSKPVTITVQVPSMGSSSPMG
Protocol: as §3

[13] = molecular target: T9, FcγRIIb (human, UniProt P31994 43-217, limits assumed); test: SPR (Biacore), FcγR over captured antibody
T9 construct: also called FcgRIIb; FcγIIB
T9 sequence: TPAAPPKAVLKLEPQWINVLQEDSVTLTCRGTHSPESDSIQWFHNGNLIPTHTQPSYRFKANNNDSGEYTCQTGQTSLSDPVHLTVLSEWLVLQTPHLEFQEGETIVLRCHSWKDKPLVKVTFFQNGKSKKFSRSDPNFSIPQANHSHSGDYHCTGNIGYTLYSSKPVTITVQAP

[14] = molecular target: T10, FcγRIIIa type V (human, UniProt P08637 17-208, limits assumed); test: SPR (Biacore), FcγR over captured antibody
T10 construct: also called FcγRIIIaV; FcgRIIIaV
T10 sequence (P08637 other isoform, or with tags, fused parts or gaps limits assumed): as the sequence (P08637 other isoform, or with tags, fused parts or gaps limits assumed) above

[15] = molecular target: T11, FcγRIa (human, UniProt P12314 16-292, limits assumed); test: SPR (Biacore), FcγR over captured antibody
T11 construct: also called FcgRIa; CD64

[16] = molecular target: T12, FcγRIIa type H (human, UniProt P12318 36-217); test: SPR (Biacore), FcγR over captured antibody
T12 construct: also called FcγRIIaH; FcγRIIH
T12 sequence: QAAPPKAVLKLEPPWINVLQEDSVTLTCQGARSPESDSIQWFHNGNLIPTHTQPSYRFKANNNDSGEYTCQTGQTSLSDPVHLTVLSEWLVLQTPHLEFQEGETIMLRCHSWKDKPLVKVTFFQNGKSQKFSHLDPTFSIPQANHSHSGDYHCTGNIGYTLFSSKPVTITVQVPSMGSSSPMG

[17] = molecular target: T9, FcγRIIb; test: SPR (Biacore), KD of IL6R-B3/IL6R-L divided by KD of the variant
Description: as §1

T6 sequence (P08637 other isoform, or with tags, fused parts or gaps limits assumed): as the sequence (P08637 other isoform, or with tags, fused parts or gaps limits assumed) above
T5 sequence (P12314 16-292 limits assumed): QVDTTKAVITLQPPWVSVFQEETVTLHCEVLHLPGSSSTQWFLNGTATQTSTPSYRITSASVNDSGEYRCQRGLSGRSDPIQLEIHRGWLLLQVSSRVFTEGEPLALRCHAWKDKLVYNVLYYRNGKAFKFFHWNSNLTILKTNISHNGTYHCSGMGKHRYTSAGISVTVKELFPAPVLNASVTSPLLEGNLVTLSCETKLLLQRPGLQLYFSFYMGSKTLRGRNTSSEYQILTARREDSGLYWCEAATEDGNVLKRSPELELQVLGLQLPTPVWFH
T11 sequence (P12314 16-292 limits assumed): as above

KD of the stronger of FcγRIIaR/FcγRIIaH binding of the variant / that of the parent polypeptide [1]: 1.5
Kd [2]: 18 µM
Kd [3]: 1.2 µM
Kd [4]: 70 µM
Kd [5]: 0.062 µM
KD(IIb) of the parent polypeptide/KD(IIb) of altered polypeptide [6]: 49.9
KD(IIaH)/KD(IIb) [7]: 191
KD(IIaR)/KD(IIb) [8]: 18.6
B1: IL6R-BP180/IL6R-L (antibody, human IgG1)
heavy: QVQLQESGPGLVKPSETLSLTCAVSGHSISHDHAWSWVRQPPGEGLEWIGFISYSGITNYNPSLQGRVTISRDNSKNTLYLQMNSLRAEDTAVYYCARSLARTTAMDYWGEGTLVTVSSASTKGPSVFPLAPSSKSTSGGTAALGCLVKDYFPEPVTVSWNSGALTSGVHTFPAVLQSSGLYSLSSVVTVPSSSLGTQTYICNVNHKPSNTKVDKKVEPKSCDKTHTCPPCPAPELLGDDSVFLFPPKPKDTLMISRTPEVTCVVVDVSHEDGEVKFNWYVDGVEVHNAKTKPREEQYNSTYRVVSVLTVLHQDWLNGKEYKCKVSNKALPKPIEKTISKAKGQPREPQVYTLPPSRDELTKNQVSLTCLVKGFYPSDIAVEWESNGQPENNYKTTPPVLDSDGSFFLYSKLTVDKSRWQQGNVFSCSVMHEALHNHYTQESLSLSP
light: DIQMTQSPSSLSASVGDRVTITCRASQDISSYLNWYQQKPGKAPKLLIYYTSRLHSGVPSRFSGSGSGTDFTFTISSLQPEDIATYYCQQGNTLPYTFGQGTKVEIK

BINDING AMOUNT (RU) [9]: 227 RU
BINDING AMOUNT (RU) [10]: 39.5 RU
BINDING AMOUNT (RU) [11]: 6.97 RU
BINDING AMOUNT (RU) [12]: 9.1 RU
B2: antibody with VH3-IgG1-F1324 heavy chain and L(WT)-CK light chain (antibody)
heavy: QVQLQESGPGLVKPSETLSLTCAVSGHSISHDHAWSWVRQPPGEGLEWIGFISYSGITNYNPSLQGRVTISRDNSKNTLYLQMNSLRAEDTAVYYCARSLARTTAMDYWGEGTLVTVSSASTKGPSVFPLAPSSKSTSGGTAALGCLVKDYFPEPVTVSWNSGALTSGVHTFPAVLQSSGLYSLSSVVTVPSSSLGTQTYICNVNHKPSNTKVDKKVEPKSCDKTHTCPPCPAPEAAGGPSVFLFPPKPKDTLYISRTPEVTCVVVDVSHEDPEVKFNWYVDGVEVHNAKTKPREEQYNSTYRVVSVLTVLHQDWLNGKEYKCKVSNKALPAPIEKTISKAKGQPREPQVYTLPPSRDELTKNQVSLTCLVKGFYPSDIAVEWESNGQPENNYKTTPPVLDSDGSFFLYSKLTVDKSRWQQGNVFSCSVMHEALHYHVTQKSLSLSP
light: not shown
notes: L234A/L235A on VH3-IgG1-F890; copies: 2 + 2

Kd [13]: 1.5 µM
Kd [14]: 78 µM
Kd [15]: 0.038 µM
Kd [16]: 38 µM
KD(IIb) of the parent polypeptide/KD(IIb) of altered polypeptide [17]: 2.1 fold
B3: IL6R-BP912/IL6R-L (antibody, human IgG1)
heavy: QVQLQESGPGLVKPSETLSLTCAVSGHSISHDHAWSWVRQPPGEGLEWIGFISYSGITNYNPSLQGRVTISRDNSKNTLYLQMNSLRAEDTAVYYCARSLARTTAMDYWGEGTLVTVSSASTKGPSVFPLAPSSKSTSGGTAALGCLVKDYFPEPVTVSWNSGALTSGVHTFPAVLQSSGLYSLSSVVTVPSSSLGTQTYICNVNHKPSNTKVDKKVEPKSCDKTHTCPPCPAPELLGGDSVFLFPPKPKDTLMISRTPEVTCVVVDVSHEDPEVKFNWYVDGVEVHNAKTKPREEQYNSTYRVVSVLTVLHQDWLNGKEYKCKVSNKALPRPIEKTISKAKGQPREPQVYTLPPSRDELTKNQVSLTCLVKGFYPSDIAVEWESNGQPENNYKTTPPVLDSDGSFFLYSKLTVDKSRWQQGNVFSCSVMHEALHNHYTQESLSLSP
light: DIQMTQSPSSLSASVGDRVTITCRASQDISSYLNWYQQKPGKAPKLLIYYTSRLHSGVPSRFSGSGSGTDFTFTISSLQPEDIATYYCQQGNTLPYTFGQGTKVEIK
notes: IgG1; Fc variant of IL6R-B3; copies: 2 + 2

From patent US20200199241A1 (Chugai, published 2020)
